Measurements reported in patent publication US10877024B2, “Methods of determining interferon having direct inhibitory effects on tumors and uses thereof” (SUPERLAB FAR EAST LIMITED, priority 2015, dated 2020).
Read-outs that look alike come from different tables or passages of the source.

Legend:
Lung cancer cells, A549 = experiment: Colony and pseudopod formation in three dimensional Matrigel culture; type: cell-based, human; settings: 10 mcg/ml
Experimental: Matrigel (from BD Corporation, Cat #: 356234) was thawed on ice in a 4° C. refrigerator overnight, and a 24-well plate was frozen at −20° C. overnight. Thereafter, each well of the frozen 24-well plate was coated with 150 μl of the Matrigel at 1.0 mg/ml. The Matrigel coated plate was then incubated 37° C. for 20-30 min. Lung cancer cells, A549, were trypsinized and counted. […] The cells were incubated at 37° C. for at least about 8 days. About 200 μl of the above conditioned medium was added every 3 days to prevent the medium from drying. On the 4th or 8th day, photographs were taken to observe the size of the colonies and invasive feet (pseudopod) formation. The experiment was conducted in triplicate.

FZD6 = experiment: qPCR of Wnt-related receptor mRNA; type: cell-based, human; settings: 10 μg/ml, 24 hr
Experimental: The regulation of LRP6/FZD6 by rSIFN-co was investigated. This was conducted by qPCR as performed in Example 9. […] After 24 hr of treatment, total cellular mRNA was isolated using TRIZOL Reagent, and cDNA was subjected to qPCR using specific primers of LRP6 and FZD6. The primers used were: LRP6 sense primer: 5′-[…]-3′ (SEQ ID NO: 4) and antisense primer: 5′-[…]-3′ (SEQ ID NO: 5), and FZD6 sense primer: 5′-[…]-3′ (SEQ ID NO: 6) and antisense primer: 5′-[…]-3′ (SEQ ID NO: 7). Experiments were conducted in triplicate and normalized with the Mock control group. Results were recorded as relative mRNA level of either LRP6 or FZD6 relative to GAPDH.

[1] = tested on: human lung cancer SPC-A4 xenografts; settings: for TV(mm^3, mean ± SD) (D 0): day 0; for % Inhibition / RTV (mean ± SD) / T/C (%) / TV(mm^3, mean ± SD) (D 21): day 21
Experimental: Under sterile conditions, well-grown tumors were cut into 1.5 mm^3 fragments and one such fragment was injected by trocar needle into the right flank of each study animal. […] Individual tumor size (length and width) was measured twice per week with microcalipers. Tumor volume (V) was calculated using the formula: V=(length×width^2)/2. Individual relative tumor volume (RTV) was calculated using the formula: RTV=Vt/V0, where Vt is the tumor volume on the day of measurement and V0 is the tumor volume on the day of first treatment. Therapeutic effect of the test article or control article was expressed in terms of T/C (%), using the formula: T/C (%)=(mean RTV of the treated group/mean RTV of the control group)×100%; and in terms of % Inhibition, using the formula: % Inhibition=100%−T/C %.
The 1.5 mm^3 fragments were then used for s.c. implantation into the test animals. The body weight of the animals averaged 22±2 g at dose initiation.

[2] = tested on: Human Colon Cancer HT-29 Xenografts; experiment: rSIFN-co on human colon cancer HT-29 xenografts in nude mice; type: in vivo; settings: for TV(mm^3, mean ± SD) (D 0): day 0; for % Inhibition / T/C (%) / TV(mm^3, mean ± SD) (D 28): day 28
[3] = tested on: phosphorylation of STAT1 (Tyr701), STAT2 (Tyr690), and STAT3 (Tyr705); experiment: p-STAT induction after B18R pre-incubation, Western blot; type: cell-based, human; settings: IFN 1 ng/ml, B18R 10 ng/ml, 30 min, compared to IFNα-2b
[4] = tested on: beta-catenin/TCF mediated transcriptional activity; experiment: Beta-catenin/TCF transcription reporter assay (TOPFlash); type: cell-based, human; settings: 10 mcg/ml, 24 hours
Experimental: The effect of rSIFN-co on Wnt/Beta-catenin signaling in vitro was determined. Cancer cells were plated in 96-well plates (at 1×10^4 cells per well), and incubated for 12 hours, after which they were transiently transfected with 100 ng TOPFlash (Millipore Corporation, Billerica, Mass., USA). […] After interferon treatment for 24 hours, luciferase assay was performed using the Dual Luciferase Assay System kit according to the manufacturer's protocols (Cat #:E1960, Promega). Relative luciferase activity was reported as a ratio of firefly/renilla luciferase activity. Experiments were performed in triplicate.

Survivin = experiment: qPCR of Wnt signaling downstream gene in A549 cells; type: cell-based, human; settings: 10 μg/ml, 24 hr
Experimental: (§1) After 24 hr of treatment, cellular total mRNA was isolated using TRIZOL Reagent and cDNA was synthesized and further subjected to qPCR, using specific primers of four (4) Wnt signaling downstream genes, Axin2, CD24, Survivin and ID2. Experiments were conducted in triplicate and normalized with the Mock group.
(§2) Total mRNA was isolated using TRIZOL Reagent (Invitrogen, Carlsbad, Calif.) according to the manufacturer's instructions. Complementary DNA (cDNA) was synthesized using a RT-PCR Kit (Cat #:FSQ-101, TOYOBO, Japan) according to the manufacturer's instructions and then subjected to qPCR with a SYBR Green PCR kit (Cat #: QPK-201, TOYOBO, Japan). The primers of the four Wnt pathway target genes were as follows: Axin2 sense primer: 5′-[…]-3′ (SEQ ID NO:8) and antisense primer: 5′-[…]-3′(SEQ ID NO: 9); CD24 sense primer: 5′-[…]-3′ (SEQ ID NO: 10) and antisense primer: 5′-[…]-3′(SEQ ID NO: 11); Survivin sense primer: 5′-[…]-3′ (SEQ ID NO: 12) and antisense primer: 5′-[…]-3′ (SEQ ID NO: 13) and ID2 sense primer: 5′-[…]-3′ (SEQ ID NO: 14) and antisense primer: 5′-[…]-3′(SEQ ID NO: 15).
(§3) The amplification protocol consisted of incubations at 95° C. for 1 minute, 40 cycles (95° C. for 15 seconds, 60° C. for 15 seconds, 72° C. for 30 seconds). Incorporation of the SYBR Green dye into PCR products was monitored in real time with a Bio-Rad Detection System and subsequently analyzed using Bio-Rad CFX manager 2.1 software. The samples were pooled for each condition and run in duplicate. Treated samples were compared to Mock using the 2^−ΔΔCt method and plotted as fold change. GAPDH was used as the normalization control.

Axin2 = experiment: as above; type: cell-based, human; settings: 10 μg/ml, 24 hr
Experimental: as §1, §2, §3

ID2 = experiment: as above; type: cell-based, human; settings: 10 μg/ml, 24 hr
Experimental: as §1, §2, §3

CD24 = experiment: as above; type: cell-based, human; settings: 10 μg/ml, 24 hr
Experimental: as §1, §2, §3

[5] = 0.05 mg/mouse i.t. every other day
[6] = 0.10 mg/mouse i.t. every other day
[7] = 0.15 mg/mouse i.t. every other day

B1: rSIFN-co: Recombinant super-compound interferon; amino acid sequence SEQ ID NO: 1 (same as INFERGEN), encoded by novel nucleotide sequence SEQ ID NO: 2 (protein)
chain: MCDLPQTHSLGNRRALILLAQMRRISPFSCLKDRHDFGFPQEEFDGNQFQKAQAISVLHEMIQQTFNLFSTKDSSAAWDESLLEKFYTELYQQLNDLEACVIQEVGVEETPLMNVDSILAVKKYFQRITLYLTEKKYSPCAWEVVRAEIMRSFSLSTNLQERLRRKE
modifications: Amino acid sequence of recombinant interferon
size of the colonies (Lung cancer cells, A549; after 4 days): smaller colonies than the untreated group | invasive feet (pseudopod) formation (Lung cancer cells, A549; after 8 days): almost no extrusive pseudopodium around the cells | size of the colonies (Lung cancer cells, A549; after 8 days): smallest colonies of the 3 groups | relative expression of FZD6 mRNA (FZD6; A549 cells): significant reduction | relative expression of FZD6 mRNA (FZD6; H460 cells): significant reduction | relative expression of FZD6 mRNA (FZD6; HT-29 cells): significant reduction | relative expression of FZD6 mRNA (FZD6; SW620 cells): significant reduction | mortality [1, 5]: one mouse in the 0.05 mg rSIFN-co-treated group died on day 17 | TV(mm^3, mean ± SD) (D 0) [1, 5]: 170 ± 41 mm^3 | % Inhibition [1, 5]: 63.68% | RTV (mean ± SD) [1, 5]: 15.45 ± 9.07 | T/C (%) [1, 5]: 36.32% | TV(mm^3, mean ± SD) (D 21) [1, 5]: 2244 ± 1043 mm^3 | TV(mm^3, mean ± SD) (D 0) [1, 6]: 168 ± 49 mm^3 | % Inhibition [1, 6]: 64.95% | RTV (mean ± SD) [1, 6]: 14.91 ± 11.19 | T/C (%) [1, 6]: 35.05% | TV(mm^3, mean ± SD) (D 21) [1, 6]: 2388 ± 1544 mm^3 | TV(mm^3, mean ± SD) (D 0) [1, 7]: 169 ± 40 mm^3 | % Inhibition [1, 7]: 67.75% | RTV (mean ± SD) [1, 7]: 13.72 ± 3.96 | T/C (%) [1, 7]: 32.25% | TV(mm^3, mean ± SD) (D 21) [1, 7]: 2284 ± 653 mm^3 | tolerability, signs of toxicity or weight loss ([1]; 0.05-0.15 mg/mouse i.t. every other day, 21 days): no signs of toxicity or weight loss were observed | TV(mm^3, mean ± SD) (D 0) [2, 5]: 130 ± 26 mm^3 | % Inhibition [2, 5]: 61% | T/C (%) [2, 5]: 39% | TV(mm^3, mean ± SD) (D 28) [2, 5]: 416 ± 166 mm^3 | TV(mm^3, mean ± SD) (D 0) [2, 6]: 128 ± 39 mm^3 | % Inhibition [2, 6]: 49.82% | T/C (%) [2, 6]: 50.18% | TV(mm^3, mean ± SD) (D 28) [2, 6]: 541 ± 196 mm^3 | TV(mm^3, mean ± SD) (D 0) [2, 7]: 131 ± 36 mm^3 | % Inhibition [2, 7]: 46.37% | T/C (%) [2, 7]: 53.63% | TV(mm^3, mean ± SD) (D 28) [2, 7]: 570 ± 144 mm^3 | tolerability, signs of drug toxicity, changes in weight ([2]; 0.05-0.15 mg/mouse i.t. every other day, 28 days): tolerated the tested dosages and showed no signs of drug toxicity and minimal changes in weight | induction of phosphorylation on STAT1/2/3 after B18R pre-incubation ([3]; A549 cells): greater induction of phosphorylation on STAT1/2/3 | induction of phosphorylation on STAT1/2/3 after B18R pre-incubation ([3]; Hela cells): greater induction of phosphorylation on STAT1/2/3 | Firefly/Renilla ratio ([4]; A549 cells, Control about 310): about 100 | Firefly/Renilla ratio ([4]; H460 cells, Control about 450): about 280 | Firefly/Renilla ratio ([4]; H1299 cells, Control about 800): about 500 | Firefly/Renilla ratio ([4]; HT-29 cells, Control about 300): about 200 | Firefly/Renilla ratio ([4]; SW620 cells, Control about 1500): less than 100 | relative expression level of Survivin mRNA (Mock control set at 1) (Survivin): about 0.4 | relative expression level of Axin2 mRNA (Mock control set at 1) (Axin2): about 0.4 | relative expression level of ID2 mRNA (Mock control set at 1) (ID2): about 0.4 | relative expression level of CD24 mRNA (Mock control set at 1) (CD24): about 0.4
